Measurements from patent US20110046068A1 (MEDICAL RESEARCH COUNCIL, published 2011).
Non-standard residues stand in square brackets, D forms with d. No end group written: not given here.

Legend:
human gpr-54 receptor [1] = biological target: T1, human gpr-54 receptor (human, UniProt Q969F8 1-398); experiment: cell-based or functional assay
human gpr-54 receptor [2] = biological target: T1, human gpr-54 receptor; experiment: cell-based or functional assay; remark: listed apart in the source
human gpr-54 receptor [3] = biological target: T1, human gpr-54 receptor; experiment: whole-cell competition binding against 125I-kisspeptin, CHO cells stably transfected with hGPR54 (CPM) [188]
Experimental: (§1) Cell monolayers were placed on ice and exposed to 0.5 mls peptide (10 pM-1 uM); the cells were then incubated at 4° C. for 4 hr. After 4 hrs, cells were washed twice with ice cold Dulbecco's phosphate buffered saline (DPBS; with Calcium and Magnesium) and then 0.5 mls 0.1M Sodium Hydroxide (NaOH) were added to cells for 20 minutes, shaking to lyse cells. Lysates were transferred to plastic tubes and bound radioactivity counted on the gamma counter for 60 seconds.

human gpr-54 receptor [4] = biological target: T1, human gpr-54 receptor; experiment: cell-based or functional assay; remark: listed apart in the source
human gpr-54 receptor [5] = biological target: T1, human gpr-54 receptor; experiment: whole-cell competition binding against 125I-kisspeptin, CHO cells stably transfected with GPR54 (CPM); the fall of the curve lies between Total and -10 LogM [200]
Experimental: as §1

human gpr-54 receptor [6] = biological target: T1, human gpr-54 receptor; experiment: cell-based or functional assay; remark: listed apart in the source
human gpr-54 receptor [7] = biological target: T1, human gpr-54 receptor; experiment: whole-cell competition binding against 125I-kisspeptin, CHO cells stably transfected with hGPR54 (CPM) [187]
Experimental: as §1

human gpr-54 receptor [8] = biological target: T1, human gpr-54 receptor; experiment: cell-based or functional assay; remark: listed apart in the source
human gpr-54 receptor [9] = biological target: T1, human gpr-54 receptor; experiment: cell-based or functional assay; remark: listed apart in the source
human gpr-54 receptor [10] = biological target: T1, human gpr-54 receptor; experiment: whole-cell competition binding against 125I-kisspeptin, CHO cells stably transfected with GPR54 (CPM) [234]
Experimental: as §1

human gpr-54 receptor [11] = biological target: T1, human gpr-54 receptor; experiment: competition of I125-labelled kisspeptin-10 on gpr-54 cells (CPM x 10^3); the legend calls the number an affinity
human gpr-54 receptor [12] = biological target: T1, human gpr-54 receptor; experiment: cell-based or functional assay; remark: listed apart in the source
human gpr-54 receptor [13] = biological target: T1, human gpr-54 receptor; experiment: whole-cell competition binding against 125I-kisspeptin, CHO cells stably transfected with GPR54 (CPM) [229]
Experimental: as §1

human gpr-54 receptor [14] = biological target: T1, human gpr-54 receptor; experiment: cell-based or functional assay; remark: listed apart in the source
human gpr-54 receptor [15] = biological target: T1, human gpr-54 receptor; experiment: whole-cell competition binding against 125I-kisspeptin, CHO cells stably transfected with GPR54 (CPM); the fall of the curve lies between Total and -10 LogM [231]
Experimental: as §1

T1 sequence (Q969F8 whole entry): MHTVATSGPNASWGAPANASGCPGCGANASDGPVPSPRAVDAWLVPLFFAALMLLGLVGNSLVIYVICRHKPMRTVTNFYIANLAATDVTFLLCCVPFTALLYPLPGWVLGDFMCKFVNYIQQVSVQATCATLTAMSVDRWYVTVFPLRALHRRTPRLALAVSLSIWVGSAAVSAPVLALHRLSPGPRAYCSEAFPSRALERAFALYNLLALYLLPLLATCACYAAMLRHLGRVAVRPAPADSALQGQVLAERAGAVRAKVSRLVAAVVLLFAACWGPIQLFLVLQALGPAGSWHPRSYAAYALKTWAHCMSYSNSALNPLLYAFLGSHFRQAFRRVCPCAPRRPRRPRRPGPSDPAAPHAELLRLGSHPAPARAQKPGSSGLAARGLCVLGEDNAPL

B1: 188 (peptide)
peptide: Ac-FGLRF-NH2
notes: kisspeptin-10 analogue; also called Peptide 188; acFGLRF
Human gpr-54 receptor [1]
  IP stimulation (IC50), peptide alone: 125 nM
  Inhibition of IP stimulation by 10nM Agonist: % Inhibition of Max: 74%
Human gpr-54 receptor [2]
  IP competition with 10nM kisspeptin-10: IC50 [188]: < 0.1 nM
  IP dose response, peptide alone: EC50 (unlabelled number beside rising curve) [188]: 92.3 nM
Human gpr-54 receptor [3]
  IC50: 143 nM

B2: 200 (peptide)
peptide: Ac-FGL[dR]W-NH2
modifications: not fully specified
notes: kisspeptin-10 analogue; also called acFGL[(D)-R]W
Human gpr-54 receptor [1]
  Inhibition of IP stimulation by 10nM Agonist: % Inhibition of Max: 63%
  Inhibition of IP stimulation by 10nM Agonist: IC50: 300 nM
Human gpr-54 receptor [4]
  IP competition with 10nM kisspeptin-10: IC50 [200]: 300 nM
Human gpr-54 receptor [5]
  IC50: 0.00249 nM

## YNWNSFGLRW-NH2 (kisspeptin-10 analogue) [187]
Human gpr-54 receptor [1]
  IP stimulation (IC50), peptide alone: 40 nM
  Inhibition of IP stimulation by 10nM Agonist: % Inhibition of Max: 36%
Human gpr-54 receptor [6]
  IP dose response, peptide alone: EC50 (unlabelled number beside rising curve) [187]: 72.1 nM
Human gpr-54 receptor [7]
  IC50: 211 nM

## [dA]NWNGFG[dW]RF-NH2 [Peptide 234]
Human gpr-54 receptor [8]
  IC50 of inhibition of 10 nM kisspeptin-10 stimulation of IP: 7 nM
  IC50 of inhibition of kisspeptin stimulation of IP: < 10 nM
Human gpr-54 receptor [1]
  Inhibition of IP stimulation by 10nM Agonist: IC50: 70 nM
Human gpr-54 receptor [9]
  IP competition with 10nM kisspeptin-10: IC50 [234]: 70 nM
Human gpr-54 receptor [10]
  IC50: 2.79 nM
Human gpr-54 receptor [11]
  IC50: 2.8 nM

B3: 229 (peptide)
peptide: Ac-YNWN[dW]FG[dW]RF-NH2
SMILES: CC(=O)N[C@@H](Cc1ccc(O)cc1)C(=O)N[C@@H](CC(N)=O)C(=O)N[C@@H](Cc1c[nH]c2ccccc12)C(=O)N[C@@H](CC(N)=O)C(=O)N[C@H](Cc1c[nH]c2ccccc12)C(=O)N[C@@H](Cc1ccccc1)C(=O)NCC(=O)N[C@H](Cc1c[nH]c2ccccc12)C(=O)N[C@@H](CCCNC(=N)N)C(=O)N[C@@H](Cc1ccccc1)C(N)=O
notes: kisspeptin-10 analogue; also called acYNWN[(D)-W]FG[(D)-W]RF
Human gpr-54 receptor [1]
  Inhibition of IP stimulation by 10nM Agonist: % Inhibition of Max: 68%
  Inhibition of IP stimulation by 10nM Agonist: IC50: 8000 nM
Human gpr-54 receptor [12]
  IP competition with 10nM kisspeptin-10: IC50 [229]: 8000 nM
Human gpr-54 receptor [13]
  IC50: 1.17 nM

B4: 231 (peptide)
peptide: Ac-YN[dW]NGFG[dW]RF-NH2
SMILES: CC(=O)N[C@@H](Cc1ccc(O)cc1)C(=O)N[C@@H](CC(N)=O)C(=O)N[C@H](Cc1c[nH]c2ccccc12)C(=O)N[C@@H](CC(N)=O)C(=O)NCC(=O)N[C@@H](Cc1ccccc1)C(=O)NCC(=O)N[C@H](Cc1c[nH]c2ccccc12)C(=O)N[C@@H](CCCNC(=N)N)C(=O)N[C@@H](Cc1ccccc1)C(N)=O
notes: kisspeptin-10 analogue; also called acYN[(D)-W]NGFG[(D)-W]RF
Human gpr-54 receptor [1]
  Inhibition of IP stimulation by 10nM Agonist: % Inhibition of Max: 55%
  Inhibition of IP stimulation by 10nM Agonist: IC50: 0.1 nM
Human gpr-54 receptor [14]
  IP competition with 10nM kisspeptin-10: IC50 [231]: 0.1 nM
Human gpr-54 receptor [15]
  IC50: 0.000564 nM
